# Assay: yeast display, Sf9 membrane polyspecificity reagent, FACS + sequencing; frameworks hold sequencing errors
# Outline: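 In a synthetic yeast display library (Saccharomyces cerevisiae BJ5465), nanobody expression was induced with galactose for 36–48 hours. FACS gates were set low and high (top ~1%) using anti-HA fluorescence for expression and streptavidin fluorescence for binding of the Sf9 membrane reagent. Each polyreactivity label is drawn from the gate of origin.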
row,Sequence,polyreactivity (PSR sort gate)
1,QVQLVESGGGLVQAGGSLRLSCAASGITFYRNAMGWYRQAPGKERELVAAISWSGGRTYYADSVKGRFTISRDNAKNTVYLQMNSLKPEDTAVYYCNKYTHYYDYDYWGQGTQVTVSS,high polyreactivity
2,QVQLVESGGGLVQAGGSLRLSCAASGITFYRNAMGWYRQATGKERELVAAITSGTSTYYADSVKGRFTISRDNAKNTVYLQMNSLKPEDTAVYYCAKRTPPGYYGFDYWGQGTQVTVSS,low polyreactivity
3,QVQLVESGGGLVQAGGSLRLSCAASGITFYRYAMGWYRQAPGKEREFVAAITWGSTYYADSVKGRFTISRDNAKNTVYLQMNSLKPEDTAVYYCNKKGYTVGATVGYWGQGTQVTVSS,low polyreactivity
4,QVQLVESGGGLVQAGGSLRLSCAASGITFYRYVMGWYRQAPGKERELVAAITSRGGSTSYADSVKGRFTISRDNAKNTVYLQMNSLKPEDTAVYNCAADLSGWGRDARGAYDYWGQGPQVTVSS,high polyreactivity
5,QVQLVESGGGLVQAGGSLRLSCAASGITFYSYAMGSYRQAPGKERELVAAISWRGGSTRYADSVKGRFTISRDNAKNTVYLQMNSLKPEDTAVYYCAARLRTKLPIPSTVGYWGQGTQVTVSS,high polyreactivity
6,QVQLVESGGGLVQAGGSLRLSCAASGITFYSYAMGWYRQAPGKERELVAAINRSGGSTYYADSVKGRFTISRDNAKNTVYLQMNSLKPEDSAVYYCAAEEGRVFSGGYDYWGQGTQVTVSS,high polyreactivity
7,QVQLVESGGGLVQAGGSLRLSCAASGITFYTYAMGWYRQAPGKERELVAAITGTGTSTYYADSVKGRFTISRDNAKNTVYLQMNSLKPEDTAVYYCAAYKRGLPVKRDSWGQGTQVTVSS,high polyreactivity
8,QVQLVESGGGLVQAGGSLRLSCAASGITFYVYAMGWYRQAPGKERELVASITSGGGSTDYADSVKGRFTISRDNAKNTVYLQMNSLKPEDTAVYYCAARYPLLNQLYDFDYWGQGTQVTVSS,low polyreactivity
9,QVQLVESGGGLVQAGGSLRLSCAASGITFYWYAMGWYRQAPGKERELVARISSTGGSTYYADSVKGRFTISRDNAKNTVYLQMNSLKPEDTAVYYCNAVGRLYLYGSWGQGTQVTLSS,high polyreactivity
10,QVQLVESGGGLVQAGGSLRLSCAASGITFYYNTMGWYRQAPGKERELVAAISSRSGSTYYADSVKGRFTISRDKAKNNVSLQMNCLKPEDTAVYYCAARRAAKYYWGQGTQVTVSS,high polyreactivity
11,QVQLVESGGGLVQAGGSLRLSCAASGITFYYYAMGWYRQAPGKERELVAAISSGGRTYYADSVKGRFTISRDNAKNTVYLQMNSLKPEDTAVYYCAASFLVTSREYDYWGQGTQVTVSS,high polyreactivity
12,QVQLVESGGGLVQAGGSLRLSCAASGITGHNAMGWYRQAPGKERELVARISSGGRTNYADSVKGRFTISRDNAKNTVYLKMNSLKPEDTAVYYCAAGFRVGSFLRYNYWGQGTKVTVSS,high polyreactivity
13,QVQLVESGGGLVQAGGSLRLSCAASGITIAGYAMGWYRQAPGKERELVAAISSRGSSTRYADSVKGRFTISRDNAKNTVYLQMNSLKPEDSAVYYCAARNEYWGQGTQVTVSS,high polyreactivity
14,QVQLVESGGGLVQAGGSLRLSCAASGITIGRYAMGWYRQAPGKERELVAAISSTGGRTYYADSVKGRFTISRDNAKNTVYLQMNSLKPEDTAVYYCAKKFAVFVSGYGYWGQGTQVTVSS,high polyreactivity
15,QVQLVESGGGLVQAGGSLRLSCAASGITIVYYAMGWYRQAPGKERELVAAITRGGNTYYADSVKGRFTISRDNAKNTVYLQMNSLKPEDTAVYYCAAVGYYYSALDMDYWGQGTQVTVSS,low polyreactivity
16,QVQLVESGGGLVQAGGSLRLSCAASGITIYKYAMGWYRQAPGKERELVAAITRGGSTNYADSVKGRFTISRDNAKNTVYLQMNSLKPEDTAVYYCNKVYHWQSPGFGYGYWGQGSQVTVSS,high polyreactivity
17,QVQLVESGGGLVQAGGSLRLSCAASGITIYYYAMGWYRQAPGTERELVAAISTTVGSTYYADSVKGRFTISRDNAKNTVYLQMNSLKPEDTAVYYCNAYRVYAWIEYNYWGQGTQVTVSS,low polyreactivity
18,QVQLVESGGGLVQAGGSLRLSCAASGITLFGYAMGWYRQAPGKERELVAAITSGGSTYYADSVKGRFTISRDNAKNTVYLQMNSLKPEDTAVYYCATSYVYYKYYSQEIYVYGFEYWGQGTQVTVSS,high polyreactivity
19,QVQLVESGGGLVQAGGSLRLSCAASGITLGTYVMGWYRQAPGKERELVAAISSGGSTYYADSVKGRFTISRDNAKNTVYLQMNSLKPEDTAVYYCAAQYYPYYDSRVSYDYWGQGTQVTVSS,low polyreactivity
20,QVQLVESGGGLVQAGGSLRLSCAASGITLGYYAMGWYRQAPGKERELVAAITWSGTSTYYADSVKGRFTISRDNAKNTVYLQMNSLKPEDTAVYYCAAGFISQYQERGYWGQGTQVTVSS,low polyreactivity
21,QVQLVESGGGLVQAGGSLRLSCAASGITLINYAMGWYRQAPGKERELVAAISTSGSSTYYADSVKGRFTISRDNAKNTVYLQMNSLKQEDTAVYYCNAEGQPLYVSWHDHRYIYGFDYWGQGTQVTVSS,low polyreactivity
22,QVQLVESGGGLVQAGGSLRLSCAASGITLNRNAMGWYRQAHGKERELVARISRRGGTTYYADSVKGRFTISRDNAKNTVYLQMNSLKPEDTAVYYCNAGPYGGNPFDYWGQGTQVTVSS,high polyreactivity

row,Sequence,polyreactivity (PSR sort gate)
1,QVQLVESGGGLVQAGGSLRLSCAASGITLNRNAMGWYRQAPGKERELVSRISRRGGTTYYADSVKGRFTISRDNAKNTVYLLMNSLKPEDTAVYYCNAGPYGGNPFDYSGQGTQVTVSS,high polyreactivity
2,QVQLVESGGGLVQAGGSLRLSCAASGITLRRNAMGWYRQATGKERELVAAISWSGGRTYYADSVKGRFTISRDNAKNTVYLQMNSLKPEDTAVYYCAARGYPLTAIDYWGQGTQVTVSS,high polyreactivity
3,QVQLVESGGGLVQAGGSLRLSCAASGITLSTYAMGWYRPAPGKERELVATITGNGDRTYYADSVKGRFTISRDNAKNTVYLQMNSLKPEDTAVYYCAKDSPGDGIGYGYWGQGTQVTVSS,low polyreactivity
4,QVQLVESGGGLVQAGGSLRLSCAASGITLSYNVMGWYRQEPGKEREFVAAITGGRTYYADSVKGRFTISRDNAKNTVYLQMNSLKPEDTAVYYCAADAPGHEYYYWGQGTQVTVSS,high polyreactivity
5,QVQLVESGGGLVQAGGSLRLSCAASGITLSYYAMGWYGPAPGKERELVAAISSNGGRTYYADSVMGRFTISRDNAKNTVYLQMNSLKPEDTAVYYCAARVYDYPRFGYWGQGTQVTVSS,high polyreactivity
6,QVQLVESGGGLVQAGGSLRLSCAASGITLYDNAMGWYRQAPGKERELVAAINVNDVSTYYADSVKGRFTISRDNAKNTVYLQKNSLKPEDTAVYYCAADSLYYGIGYWVVRYDYWGQGTQVTVSS,low polyreactivity
7,QVQLVESGGGLVQAGGSLRLSCAASGITLYINAMGWYRQAPGKERELVAAITRIGGRTYYADSVKGRFTISRDNAKNTVYLQMNSLKPEDTAVYYCNARTYNAFNYWGQGTQVTVSS,high polyreactivity
8,QVQLVESGGGLVQAGGSLRLSCAASGITLYKYAMGWYRQAPGKERELVASISRSGGSTYYADSVKGRFTISRDNAKNTVYLQMNSLKPEDTAVYYCNARAKSYRFGYWGQGTQVTVSS,high polyreactivity
9,QVQLVESGGGLVQAGGSLRLSCAASGITLYLNAMGWYRQAPGKERELVAAITASGGSTYADSVKGRFTISRDNAQNTVYLQMNSLKPEDTAVYYCAADVIYEYYFTFGVGYYEYDYWGQGTQVTVSS,low polyreactivity
10,QVQLVESGGGLVQAGGSLRLSCAASGITLYRYVMGWYRQAPGKERELVADISGRGTSTYYADSVKGRFTISRDNAKNTVYLQMNSLKPEETAVYYCNAEYTKTGALVIPYTYYYAEDYWGQGTQVTVSS,low polyreactivity
11,QVQLVESGGGLVQAGGSLRLSCAASGITLYYNAMGWYRQAPGKESELVAAITWSGSRTYYADSVKGRFTISRDNAKNTVYLQMNSLKPEDTAVSYCAADVDFWNTVEDMDYWGQGNQVTVSS,low polyreactivity
12,QVQLVESGGGLVQAGGSLRLSCAASGITSGNNAMGWYRQAPGKERELVAAISWTGGSTYYADSVKGRFTISRDNAKNTVYLEMNSLKPEDTAVYYCAAGGWDPFTEQHYEYWGQGTQVTVSS,low polyreactivity
13,QVQLVESGGGLVQAGGSLRLSCAASGITSGTYAMGRYRQAPGKERELVAGISRSGTRTYYADSVKGRFTISRDNAKNTVYLQMNSLKPEDTEVYYCNTYVGRRPGYGYWGQGTQVTVSS,high polyreactivity
14,QVQLVESGGGLVQAGGSLRLSCAASGITSHPYDMGWYRQAPGKERELVAVITSGGSTSYADSVKGRFTISRDNAKNTVYLQMNSLKPEDTAVYYCNADSWYAWYSYGYDYWGQGTQVTVSS,low polyreactivity
15,QVQLVESGGGLVQAGGSLRLSCAASGITSSLNAMGWYRQAPGKERELVAAISWRGGSTYYADSVKGRFTISRDNAKNTVYLQMNSLKPEDTAVYYCAARSSYRKMDYWGQGTQVTVSS,high polyreactivity
16,QVQLVESGGGLVQAGGSLRLSCAASGITSSTYAMGWYRQAPGKERELVAAISLSGSSTNYADSVKGRFTISRDNAKNTVYLQMNSLKPEDTAVYYCAATNYRTYPYGYWGQGTQVTVSS,high polyreactivity
17,QVQLVESGGGLVQAGGSLRLSCAASGITSYYYTMGWYRQAPGKERELVAAITSGGSTYYADSVKGRFTISRDNAKNSVYLQMNSLKPEDTAVYYCTADNPRYRGSKYGPYDDYNYWGQGTQVTVSS,low polyreactivity
18,QVQLVESGGGLVQAGGSLRLSCAASGITVLKYVMGWYRQAPGKEREFVAAITARGGTTYYADSVKGRFTISRDNAKNTVYLQMNSLKQEDTAVYYCAARSYYSGLAYYYWGQGTQVTVSS,high polyreactivity
19,QVQLVESGGGLVQAGGSLRLSCAASGITYGIYSMGWYRQAPGKERELVAAIDGSDGSTYYADSVKGRFTISRDNAKNTVYLQMNSLKPEDTAVYYCNADTGGYYVTGSYLYNEYDYWGQGTQVTVSS,low polyreactivity
20,QVQLVESGGGLVQAGGSLRLSCAASGITYTSYAMGWYRQAPGKERELVAAISSSGGSTYYADSVKGRFTISRDNAKNTVYLQMNSLKPEDTAVYYCIARPRSRSPRVEYDYWGQGTQVTVSS,high polyreactivity
21,QVQLVESGGGLVQAGGSLRLSCAASGITYVSNAMGWYRQAPGKERELFAANTRRGTSTYYADSVKGRFTLSRDNAKNTVYLQMNSLKPVDTAVYYCNKVWKYSSSGFGKEVYGYDYWGQGTQVTVSS,high polyreactivity
